Assay results published in US20050025821A1, “Lipid-comprising drug delivery complexes and methods for their production” (priority 2001, published 2005).
Starred links: 1 amine or outer side, 2 acyl side, 3 side chain; linkers in the order of their positions; H or OH if unused. Suc = O=C(CCC(=O)[*:2])[*:1]

What was measured:
[1] = Surface zeta potential (Malvern zeta sizer); assay type: physicochemical; conditions: 10 mol % in LPD, 5% dextrose USP pH 5.0
Protocol: LPDs were prepared as described by Li, S., et al., Gene Therapy, 1998. 5(7): p. 930-937. Lipid:protamine:DNA ratios of 12 nmol:0.9 μg:1 μg, 12 nmol:0.97 μg:1 μg, and 12 nmol:1 μg:1 μg were used for these experiments, as indicated. As a typical example, 150 μl of liposomes at 6mM were mixed with 197 μl of 5% dextrose USP followed by the addition of 153 μl of pre-compacted DNA at 490 μg/ml. This operation was performed under moderate vortex agitation (speed #3), and the resulting LPD solution contained 150 μg DNA/ml. […] The surface zeta potential was determined using a Malvern zeta sizer (Malvern Instrument Inc, Sacramento, Calif.).
Typically, 0.15 ml of mixed micelles prepared as describe above were mixed with 350 μl of DNA pre-compacted with protamine at a 2:1 protamine:DNA ratio under mild vortex agitation (speed 3). Particles formed spontaneously, i.e. solution became cloudy. […] Particle sizes were assessed as described above and typically were in the 100-200 nm range as determined using a N4Plus coulter (Beckman Coulter, Miami, Fla.) sizer in unimodal mode. The surface zeta-potential was determined using a Malvern zeta sizer (Malvern Instrument Inc, Sacramento, Calif.). […]
PPAA polymer was supplied by Dr. Allan Hoffman's laboratory (University of Washington, Seattle, Wash.). […] The surface zeta potential was determined using a Malvern zeta sizer (Malvern Instrument Inc, Sacramento, Calif). […]

[2] = Particle sizing (mean diameter, polydispersity; Coulter N4Plus, unimodal mode); assay type: physicochemical; conditions: condensed DNA 2:1 μg:μg, DNA 0.143 mg/ml, second experiment (Table 18)
Protocol: The liposomes were prepared as follows: 6000 nmol of 1,2-dioleoyl-3-trimethylammonium-propane (DOTAP) (Avanti Polar Lipid Inc., Alabaster, Ala.) at 20 mg/ml in chloroform and 6000 nmol of cholesterol (Avanti Polar Lipid Inc., Alabaster, Ala.), also prepared at 20 mg/ml in chloroform (J. T. Baker, Phillipsburg N.J.), were mixed in a borosilicate tube and dried for 1 hr under nitrogen at 4 liters per minute (LPM) using a N-EVAP™ (Organomation, Berlin, Mass.). The resulting lipid films were hydrated in 2 ml of 5% USP dextrose (Abbott Laboratories, North Chicago, Ill.) to achieve a final lipid concentration of 6 mM. […]
LPDs were prepared as described by Li, S., et al., Gene Therapy, 1998. […] The surface zeta potential was determined using a Malvern zeta sizer (Malvern Instrument Inc, Sacramento, Calif.).
DLPDs were generated by a modified version of the method previously described by Harvie, P., F. M. Wong, and M. B. Bally, Biophys J, 1998. […] Particle sizes were assessed as described above and typically were in the 150-300 nm range.
Typically, 0.15 ml of mixed micelles prepared as describe above were mixed with 350 μl of DNA pre-compacted with protamine at a 2:1 protamine:DNA ratio under mild vortex agitation (speed 3). […] The surface zeta-potential was determined using a Malvern zeta sizer (Malvern Instrument Inc, Sacramento, Calif.). […]

[3] = tested on: KB cells; assay: In vitro transfection (luciferase expression); assay type: cell-based; conditions: 1 μg DNA/well
Protocol: The following day, the media was removed and replaced with 500 μl of fresh serum-free media.

Row | Substance | decrease in the zeta-potential versus conventional LPD [1] [mV] | size (nm) [2] [nm] | increase in transfection activity when formulated with CHEMS:DOPE compared to peptide-compacted DNA alone [3]
1 | DSPE-PEG5K-succinyl-ACDCRGDCFCG-COOH ({DSPE-PEG5K-Suc}-ACDCRGDCFCG-OH; cysteine pairing not given here) [DSPE-PEG5K-RGD, targeting factor-pegylated lipid conjugate] | 15 |  | 
2 | KHKHKHKHKGKHKHKHKHK |  | 25 | No change in the transfection activity
